Source: the supplement of paper PMC9170038

Test system: MS2 coat protein
Assay: apparent KD of MS2 coat protein; designed switch direction (-1 OFF switch, 1 ON switch): -1; higher = weaker reporter binding
In short: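 On Illumina chips, designed RNA switches with common flanks were made by stalled E. coli RNA polymerase. Titrations with SNAP-549-labelled MS2 coat protein, doubling from 0.7 or 1.5 nM to 3 µM, were done with no input, with 200 uM small-molecule ligand, or with an oligonucleotide input. Apparent KD is the median per design over clusters, from curve fits of normalised cluster fluorescence.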

[1] = input ligand: microRNA oligo, concentration not stated
[2] = Eterna round: R95, input ligand: microRNA oligo, concentration not stated
[3] = Eterna round: R95, input ligand: FMN 200 uM
[4] = Eterna round: R95, input ligand: none

| Sequence | apparent KD of MS2 coat protein (input ligand: FMN 200 uM) [nM] | apparent KD of MS2 coat protein (input ligand: none) [nM] | apparent KD of MS2 coat protein [1] [nM] | apparent KD of MS2 coat protein [2] [nM] | apparent KD of MS2 coat protein [3] [nM] | apparent KD of MS2 coat protein [4] [nM] |
| --- | --- | --- | --- | --- | --- | --- |
| CUAAUACAUCAGGAUAUGUGUCAUUAUAGCGACACAGAAGGGAUGACAUGAGGAUCACCCAUGUCAAAGGGUGA [eternacac ex6r4 sub22] (Eterna round: R97, puzzle: Exclusion 6) | 85.4 | 639 | – | – | – | – |
| CAGUACUGAGGAUAUACAUGAGGAUCACCCAUGUGUGUGCGUUUUGUAUGAAUGUUAUGUAGAAGGCGGUGCUG [JR_Ex3_Sub035] (Eterna round: R97, puzzle: Exclusion 3) | 201 | 39.1 | – | – | – | – |
| ACGAUGACCGAAAAGUGUCAACUGACAUGAGGAUCACCCAUGUAGGAUAUGGCUACGAAAAGUAGUCAGAAGGACAAGUCAUCA [Omei Exc(NG) 3 Av5] (Eterna round: R96, puzzle: Exclusion NG 3) | 12.4 | 14 | 8.52 | – | – | – |
| GAUGAGGUAGGAUAUACGAUAAUAUAGGGUAGAUAUAUAACACAUGAGGAUCACCCAUGUAGAAGGACCAGUAG [Mat - Exclusion 2 - Mod of my Tesla design - D66] (Eterna round: R96, puzzle: Exclusion 2) | 143 | 42.3 | 30.3 | – | – | – |
| ACAUGUAAUGCAGGAUAUUUUACACAUGAGGAUCACCCAUGUGACCAGAGGAAUUGCUAUGAGUAGAAGAAGGGUAUGUACAUG [Ex NG2 #56] (Eterna round: R96, puzzle: Exclusion NG 2) | 78.8 | 64.4 | 56.7 | – | – | – |
| UAUAUAUAGUAAGGAUAUGUAACUAUUUUAUAAACAGAAGGUACUGACAUGAGGAUCACCCAUGUUUUAGUGUGGGCAUGUAGA [JMF's solution 29] (Eterna round: R96, puzzle: Exclusion NG 1) | – | – | 72.6 | – | – | – |
| GUGUAGAUAGGAUAUGCGUGAGUCUAGCGAAGCUAGAUUCUACAUGAGGAUCACCCAUGUAGAAGGGUCUACAC [Fiskers Ex 2 - 26] (puzzle: Exclusion 2) | – | – | – | 15.9 | – | – |
| CCGGAAAUGCAGGAUAUCGUAUCGGAUACGAUACGAGAAGGGUAGACAUGAGGAUCACCCAUGUGUCCUACCGG [Fiskers Ex 6 - 50] (puzzle: Exclusion 6) | – | – | – | 78.6 | 110 | 101 |
| GAGAGGUCAGGAUAUACGGAGAGAGAGAGUAGGUGAGGGUAACAUGAGGAUCACCCAUGUAGAAGGGACUAAGG [JR_Exclu2_Sub075] (puzzle: Exclusion 2) | – | – | – | 48.4 | 51.7 | 46.3 |
| GUUAUGUCAGGAUAUGCUAAUGAUGAAUGAUCAGACAUAAUGUAGAAGGGACAUGAGGAUCACCCAUGUAAUAU [EX4 #6] (Eterna round: R97, puzzle: Exclusion 4) | 29.4 | 23.3 | – | – | – | – |
| UUAAAUCAUGUAGGAUAUGCGUGGCGAAGCUAUGCAGAAGGACAUGAGGAUCACCCAUGUUCUGCGGUCUGCGUACAGAUCGCU [JL ENG1 1.04] (Eterna round: R96, puzzle: Exclusion NG 1) | – | – | 14.9 | – | – | – |
| GACUGCAGAGGAUAUACAUGAGGAUCACCCAUGUGAGAUGCCUGACAGGUGUUGCUGAGUAGAAGGCUGCACUG [Onorveer] (puzzle: Exclusion 3) | – | – | – | 13.2 | – | – |
| CCAAGCUUCUUCAUUAUCCACAUGAGGAUCACCCAUGUCUUGGCAAUUAUGACCUGCCCGUCAGGAGCUCGUCUUAU [Sensor-V1 #38] (Eterna round: R97, puzzle: Sensor, turn-off variant 1) | 806 | 951 | – | – | – | – |
| UUUUUAGUGCUUUUUAAGUACAUGAGGAUCACCCAUGUACUUGUCUGGUGGUCCGGACAAGCUUUUUGCUCGUCUAG [Sensor v3 - turn-off variant 1 - 3] (puzzle: Sensor v3, turn-off variant 1) | – | – | – | 29.4 | 32.4 | 36.4 |
| AAUGAUUGACGAGGAUAUUGUGGUGAAACACGACGAGAAGGCGUAUGUCACAUGAGGAUCACCCAUGUGUGCUUUGUGGAUAUA [Ex NG1 #69] (Eterna round: R96, puzzle: Exclusion NG 1) | 39.7 | 31.1 | 24.2 | – | – | – |
| ACAAGCUUUUUGUUCGUCUUAUACACUCCUAAUAAGACAACAUGAGGAUCACCCAUGUAACAAACACGAACUCAUGU [Sesor Array 7 - Jieux - Sensor v3, turn-off variant 2] (puzzle: Sensor v3, turn-off variant 2) | – | – | – | 369 | 174 | 195 |
| UGUAGUUCAGGAUAUGAUGUAUAAUACAUGAGGAUCACCCAUGUAGAUCCUGAAUUUACAUCAGAAGGGAAUAUUU [JL-ex5-4.58 Brourd mod] (Eterna round: R97, puzzle: Exclusion 5) | 20.4 | 15.4 | – | – | – | – |
| CGUAAGUGAGGAUAUCGUAGAGGAGACAUGAGGAUCACCCAUGUGUCAAGCGGUCCCGAAUGAGAAGGCACUGGUU [EX5 B.25] (Eterna round: R97, puzzle: Exclusion 5) | 21.5 | 20.3 | – | – | – | – |
